Key:
[1] = target: T1, plexin-A2A396E expressed in COS7 cells (mouse, UniProt P70207 35-1894); assay: AP-fusion binding assay on transfected COS7 cells
T1 construct: whole, on cells; Same point mutation as in NMF454 mice, made by site-directed mutagenesis; also called mutated plexin-A2A396E; NMF454 mutation
Experimental: This plexin-A2A396E cDNA was then expressed in COS7 cells, and its ability to bind Sema6A-AP was tested using the same method shown in Example 8. See Suto et al. Neuron 53: 5354 (2007).

[2] = target: T2, full-length mouse plexin-A2 protein, N-terminal myc-tag, stably expressed on L cells (mouse, UniProt P70207 35-1894); assay: AP-fusion binding to L cells stably expressing plexin-A2, colorimetric AP activity of cell lysates
T2 construct: whole, on cells; also called plexin-A2 expressing L cells
T2 sequence (P70207 other isoform, or with tags, fused parts or gaps): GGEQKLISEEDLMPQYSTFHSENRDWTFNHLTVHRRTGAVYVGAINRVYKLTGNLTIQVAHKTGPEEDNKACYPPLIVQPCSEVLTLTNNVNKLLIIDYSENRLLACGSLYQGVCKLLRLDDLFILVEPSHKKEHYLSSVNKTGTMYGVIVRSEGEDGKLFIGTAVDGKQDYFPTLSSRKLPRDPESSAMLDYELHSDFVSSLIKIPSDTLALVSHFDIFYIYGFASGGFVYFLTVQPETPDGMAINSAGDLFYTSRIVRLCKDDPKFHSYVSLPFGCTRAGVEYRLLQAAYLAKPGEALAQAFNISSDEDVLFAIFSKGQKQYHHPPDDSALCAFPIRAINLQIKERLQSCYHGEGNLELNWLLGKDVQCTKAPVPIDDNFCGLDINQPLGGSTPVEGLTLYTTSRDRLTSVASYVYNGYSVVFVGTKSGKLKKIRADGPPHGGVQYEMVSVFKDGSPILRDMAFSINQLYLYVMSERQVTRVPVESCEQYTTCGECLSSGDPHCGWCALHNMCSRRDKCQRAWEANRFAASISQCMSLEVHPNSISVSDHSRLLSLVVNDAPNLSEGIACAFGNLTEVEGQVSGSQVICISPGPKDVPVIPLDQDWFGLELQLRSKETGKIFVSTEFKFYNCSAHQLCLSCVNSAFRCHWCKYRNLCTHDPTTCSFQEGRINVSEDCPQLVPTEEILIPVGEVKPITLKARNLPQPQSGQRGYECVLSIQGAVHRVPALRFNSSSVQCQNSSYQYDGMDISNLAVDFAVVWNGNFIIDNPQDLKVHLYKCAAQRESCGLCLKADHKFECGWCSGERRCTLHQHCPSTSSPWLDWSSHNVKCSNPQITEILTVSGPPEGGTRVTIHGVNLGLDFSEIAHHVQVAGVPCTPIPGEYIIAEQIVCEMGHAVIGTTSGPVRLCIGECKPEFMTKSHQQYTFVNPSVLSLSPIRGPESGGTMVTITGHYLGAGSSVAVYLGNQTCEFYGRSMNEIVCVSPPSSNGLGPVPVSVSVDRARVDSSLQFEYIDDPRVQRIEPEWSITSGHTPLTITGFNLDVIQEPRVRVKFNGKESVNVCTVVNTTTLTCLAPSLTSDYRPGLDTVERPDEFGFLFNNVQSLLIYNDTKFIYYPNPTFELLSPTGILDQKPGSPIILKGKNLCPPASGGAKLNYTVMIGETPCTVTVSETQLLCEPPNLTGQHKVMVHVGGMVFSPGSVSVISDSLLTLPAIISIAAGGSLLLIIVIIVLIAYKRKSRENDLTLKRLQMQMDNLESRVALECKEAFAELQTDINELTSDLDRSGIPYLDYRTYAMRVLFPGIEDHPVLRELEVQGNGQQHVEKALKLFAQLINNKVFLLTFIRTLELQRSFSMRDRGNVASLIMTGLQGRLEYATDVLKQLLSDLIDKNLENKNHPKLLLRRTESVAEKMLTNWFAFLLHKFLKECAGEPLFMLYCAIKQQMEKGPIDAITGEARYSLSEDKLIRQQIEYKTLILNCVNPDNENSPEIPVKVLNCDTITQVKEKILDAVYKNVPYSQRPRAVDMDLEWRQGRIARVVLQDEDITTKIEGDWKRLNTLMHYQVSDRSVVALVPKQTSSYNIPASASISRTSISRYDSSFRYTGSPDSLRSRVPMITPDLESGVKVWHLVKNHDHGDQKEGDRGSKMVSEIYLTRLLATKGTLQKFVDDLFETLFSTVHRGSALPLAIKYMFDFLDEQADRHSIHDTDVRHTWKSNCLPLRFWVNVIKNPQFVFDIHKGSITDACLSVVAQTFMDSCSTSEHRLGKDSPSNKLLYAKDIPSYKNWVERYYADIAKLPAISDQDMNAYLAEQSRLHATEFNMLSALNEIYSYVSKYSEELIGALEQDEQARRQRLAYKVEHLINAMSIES
Experimental: In order to show the binding of Sema6A to Plexin-A2, L-cells that stably express the full-length mouse plexin-A2 proteins were incubated with 250 μl of HBSS with 0.5 mg/ml BSA, 0.1% NaN₃, and 20 mM HEPES, pH 7.0 (HBHA solution) containing 1% FBS and the AP-Sema6Aect-Fc recombinant proteins (the culture supernatant) for 1 h on ice as described in Flanagan and Leder, Cell 63: 185-194 (1990). After removal of the HBHA solution, cells were treated with 250 μl of 10 mM Tris-HCl, pH 8.0, supplemented with 0.1% Triton X-100 to dissolve the recombinant proteins bound to the cell surface. The cell lysates were subjected to colorimetric analysis to measure AP activity as described in Flanagan and Leder, Cell 63: 185-194 (1990) and Flanagan et al., Methods Enzymol 327: 17-35 (2000).
It was shown that the Fc-dimerized recombinant AP-tagged ectodomain of Sema6A bound with a high affinity to plexin-A2 expressing L cells. […] 25: 3628-3637 (2005).

T1 sequence (P70207 35-1894 A396E): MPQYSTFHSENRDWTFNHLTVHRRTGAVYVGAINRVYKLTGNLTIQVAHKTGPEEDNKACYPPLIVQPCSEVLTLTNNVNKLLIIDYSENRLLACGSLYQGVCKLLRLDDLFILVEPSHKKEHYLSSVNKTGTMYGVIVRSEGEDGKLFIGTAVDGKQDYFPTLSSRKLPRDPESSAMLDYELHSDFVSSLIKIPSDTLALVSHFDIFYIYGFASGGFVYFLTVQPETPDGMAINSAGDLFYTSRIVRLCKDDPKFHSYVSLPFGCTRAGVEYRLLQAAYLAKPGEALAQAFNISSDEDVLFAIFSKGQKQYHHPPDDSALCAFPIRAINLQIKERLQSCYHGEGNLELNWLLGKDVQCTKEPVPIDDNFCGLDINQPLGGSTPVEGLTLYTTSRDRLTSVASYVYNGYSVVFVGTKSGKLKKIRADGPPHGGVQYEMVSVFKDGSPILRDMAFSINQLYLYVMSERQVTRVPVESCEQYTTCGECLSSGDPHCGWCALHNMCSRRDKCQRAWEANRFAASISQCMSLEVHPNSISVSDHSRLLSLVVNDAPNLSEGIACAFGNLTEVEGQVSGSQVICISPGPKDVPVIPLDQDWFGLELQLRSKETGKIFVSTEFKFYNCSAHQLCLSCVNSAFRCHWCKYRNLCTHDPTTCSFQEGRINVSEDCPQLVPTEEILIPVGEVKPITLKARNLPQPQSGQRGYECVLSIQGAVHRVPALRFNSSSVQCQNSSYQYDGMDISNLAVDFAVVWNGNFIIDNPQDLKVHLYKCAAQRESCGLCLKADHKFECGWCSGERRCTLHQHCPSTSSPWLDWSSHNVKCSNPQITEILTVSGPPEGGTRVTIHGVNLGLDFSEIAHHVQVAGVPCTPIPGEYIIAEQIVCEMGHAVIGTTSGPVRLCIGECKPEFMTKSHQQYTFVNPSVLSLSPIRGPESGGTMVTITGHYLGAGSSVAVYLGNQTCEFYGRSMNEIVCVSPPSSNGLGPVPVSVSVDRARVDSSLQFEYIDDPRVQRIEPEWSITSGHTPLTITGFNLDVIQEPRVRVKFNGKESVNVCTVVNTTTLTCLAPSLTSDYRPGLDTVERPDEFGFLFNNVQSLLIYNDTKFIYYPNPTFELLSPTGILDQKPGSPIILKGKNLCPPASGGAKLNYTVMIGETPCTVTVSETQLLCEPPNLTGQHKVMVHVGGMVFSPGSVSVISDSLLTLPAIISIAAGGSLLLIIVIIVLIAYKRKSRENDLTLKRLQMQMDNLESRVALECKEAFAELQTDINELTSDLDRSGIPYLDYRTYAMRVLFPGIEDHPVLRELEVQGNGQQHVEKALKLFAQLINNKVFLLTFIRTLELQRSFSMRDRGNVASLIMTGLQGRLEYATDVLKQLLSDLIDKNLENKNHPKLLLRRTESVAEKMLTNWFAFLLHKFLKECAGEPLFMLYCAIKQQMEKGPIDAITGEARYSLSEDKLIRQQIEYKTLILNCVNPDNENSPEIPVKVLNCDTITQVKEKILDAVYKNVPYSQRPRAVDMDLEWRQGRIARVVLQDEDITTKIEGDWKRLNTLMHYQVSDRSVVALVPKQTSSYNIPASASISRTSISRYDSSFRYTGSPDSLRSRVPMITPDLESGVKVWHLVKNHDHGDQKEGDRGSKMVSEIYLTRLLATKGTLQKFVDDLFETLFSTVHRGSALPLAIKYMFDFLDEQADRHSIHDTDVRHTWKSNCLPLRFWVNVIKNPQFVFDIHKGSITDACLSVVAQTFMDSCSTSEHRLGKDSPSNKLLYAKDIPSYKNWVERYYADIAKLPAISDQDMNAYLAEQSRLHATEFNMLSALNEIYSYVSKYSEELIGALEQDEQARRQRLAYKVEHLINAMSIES

Row | binding result [1] | Kd [2] | Binder
1 | no binding | – | Sema6A-AP (ligand, UniProt O35464 19-649, looked up, Printed only as 'Sema6A-AP'; Order of the pieces follows the printed label only; not shown: alkaline phosphatase (AP) tag) GFPEDSEPISISHGNYTKQYPVFVGHKPGRNTTQRHRLDIQMIMIMNRTLYVAARDHIYTVDIDTSHTEEIYCSKKLTWKSRQADVDTCRMKGKHKDECHNFIKVLLKKNDDTLFVCGTNAFNPSCRNYRVDTLETFGDEFSGMARCPYDAKHANIALFADGKLYSATVTDFLAIDAVIYRSLGDSPTLRTVKHDSKWLKEPYFVQAVDYGDYIYFFFREIAVEYNTMGKVVFPRVAQVCKNDMGGSQRVLEKQWTSFLKARLNCSVPGDSHFYFNILQAVTDVIRINGRDVVLATFSTPYNSIPGSAVCAYDMLDIANVFTGRFKEQKSPDSTWTPVPDERVPKPRPGCCAGSSSLEKYATSNEFPDDTLNFIKTHPLMDEAVPSIINRPWFLRTMVRYRLTKIAVDNAAGPYQNHTVVFLGSEKGIILKFLARIGSSGFLNGSLFLEEMNVYNPEKCSYDGVEDKRIMGMQLDRASGSLYVAFSTCVIKVPLGRCERHGKCKKTCIASRDPYCGWVRESGSCAHLSPLSRLTFEQDIERGNTDGLGDCHNSFVALNGHASSLYPSTTTSDSASRDGYESRGGMLDWNDLLEAPGSTDPLGAVSSHNHQDKKGVIRESYLKSNDQLVPVT
2 | – | 3.21 nM | recombinant Fc-dimerized AP-tagged Sema6A ectodomain (AP-Sema6Aect-Fc) (Fc fusion, mouse, UniProt O35464 18-648, looked up, range 18-648; Used as culture supernatant of transfected HEK293T cells; also called Fc-dimerized recombinant AP-tagged ectodomain of Sema6A; not shown: alkaline phosphatase (AP) tag from the Aptag-4 vector; Fc from the pEF-Fc expression vector) AGFPEDSEPISISHGNYTKQYPVFVGHKPGRNTTQRHRLDIQMIMIMNRTLYVAARDHIYTVDIDTSHTEEIYCSKKLTWKSRQADVDTCRMKGKHKDECHNFIKVLLKKNDDTLFVCGTNAFNPSCRNYRVDTLETFGDEFSGMARCPYDAKHANIALFADGKLYSATVTDFLAIDAVIYRSLGDSPTLRTVKHDSKWLKEPYFVQAVDYGDYIYFFFREIAVEYNTMGKVVFPRVAQVCKNDMGGSQRVLEKQWTSFLKARLNCSVPGDSHFYFNILQAVTDVIRINGRDVVLATFSTPYNSIPGSAVCAYDMLDIANVFTGRFKEQKSPDSTWTPVPDERVPKPRPGCCAGSSSLEKYATSNEFPDDTLNFIKTHPLMDEAVPSIINRPWFLRTMVRYRLTKIAVDNAAGPYQNHTVVFLGSEKGIILKFLARIGSSGFLNGSLFLEEMNVYNPEKCSYDGVEDKRIMGMQLDRASGSLYVAFSTCVIKVPLGRCERHGKCKKTCIASRDPYCGWVRESGSCAHLSPLSRLTFEQDIERGNTDGLGDCHNSFVALNGHASSLYPSTTTSDSASRDGYESRGGMLDWNDLLEAPGSTDPLGAVSSHNHQDKKGVIRESYLKSNDQLVPV
